Common to all, as to test: other fluorescence titration
One test deals with H3K4ac peptide.
A further test deals with H3K4me3 peptide.
The target in test [1] is unmodified H3 (aa 1–12) peptide (UniProt P68431).

The source of these data is article PMC8133392.

One may read the Kd as a measure of binding affinity in units of concentration. Lower therefore signals a tighter complex.

Consider “ZZEF1ZZ2 with H1877 replaced by tryptophan (for tryptophan fluorescence) (domain or fragment)”, for which the Kd is 11 µM with H3K4ac peptide, 4.8 µM with H3K4me3 peptide and 4.3 µM in test [1].
